Changes are numbered by the printed parent chain.
B1: SEQ ID NO:48: amidohydrolase, Amycolatopsis mediterranei U32 (protein, listed as Amycolatopsis mediterranei)
chain: MASMKLYGLEEHFVTADVIEAWRRRDPGLAEPMMKWAVASDITPALLDVDGGRIAAMDDAGIDTTVLSLTTPGLQNLDAAEAVALQAPTNDLIAAAVRRHPGRFQGFATLATSAPAAAADELRRAVTELGLNGALVNANSRGRALDAPGFWDIYEAAEDLRAPVYLHPGVPVPAVTEAYYRGFGEPVNSMLATGAFGWHYDAGLTILRMIVAGVFDRFPGLQVILGHWGEVVLFYLDRVAAMDKLTALRRPIAEYFRSNIFITPGGISSHKYLRWSLETVGVERIMYASDYPFNTERAGSARRFLDTAPVDEAGRERIAYRNWEELIAGIRR
B2: SEQ ID NO:33: amidohydrolase, Rhizobium leguminosarum bv. viciae 3841 (protein, listed as Rhizobium leguminosarum)
chain: MAQGKIALEEHFAIPETLQDSAGFVPGDYWKELSARLLDIQEKRLRLMDAHGIEKMILSLNAPAVQAIPDRAKALEISRRANDFLAEQCVKNPNRFLGFAALPLQDPDAATQELQRCVTTMGFVGALVNGFSQEGDGTTPLYYDLPQYRSFWAEVEKLNVPFYLHPRNPLPQDSRIYAGHSWLMGPTWAFAQETAVHALRLMGSGLFDEHPALRIIVGHMGEGLPYMMWRIDNRNAWVKVEKSYPAKRPIADYFNENFYITTSGNFRTQSLIDAMLEIGADRILFSADWPFENIDHAANWFDSATISEADRLKIGRTNAVSLFKLDR
B3: SEQ ID NO:43: amidohydrolase, Rhizobium leguminosarum bv. trifolii WSM2304 (protein, listed as Rhizobium leguminosarum)
chain: B2 chain with K31T, E42D, A50T, R71K, L75V, S150P, N159D, I294V
B4: SEQ ID NO:47: hypothetical protein SOD_m00560, Serratia odorifera 4Rx13 (protein, listed as Serratia odorifera)
chain: MAKIICLEEHTLDKALVMASMPAALAQAPFLSDWGKTITDGNLPDRSRPQIEKNDLINVKGADIGRGRLDDMDEAGITMQVLSVGGFPHLISAAEGVDLNRAANDRLANAVNAHPDRFAAFATLPWAQPDAAEKELERAVKELGFKGALLNGRPSIHFLDHPDYDGLLARFNALGVPLYLHPGLPVRSVQQAYYSGFSDEVTARLSMFGWGWHHEAGIHLLRLILSGAFDKYPNLQVISGHWGEMLPFWLQRLDDSLPQAATGLRRTITQTFREQVYVTPSGMLTLPHFQFIYALLGAERILFSVDYPYQTLDGVKAFIQSLPVPEEAKEAIAFRNAERLFGLTS
B5: SEQ ID NO:28: 5-carboxyvanillate decarboxylase, Sphingomonas paucimobilis (protein, listed as Sphingomonas paucimobilis)
chain: MARLIATEEAVTFQPVVDALRAHSRTDDASLDMILVRDVYGDEPARPAMIGRLSDVTGERLAEMDSNGVDMHLLSLTAPGVQMFDAETGTRLARIANDLMAQTVAANPTRFAGLGTFAPQDPASAAREIERVATQLRLNGLVINSHTNDLYYDDPFFHPVFEAIEASGLALYIHPRAPSKQIDRAFRDYGMNSAIWGYGIETSTNAVRMILSGLFDRFPRLKIVLGHMGEAIPFWLWRLDYMHGNATTFGGAPKLKLKPSEYFRRNFAITTSGVESHAALRYSIEVLGPENVMWAIDYPYQPMAPAVQFIRTAPIPEDVKAMVAGGNAARIFRIT
B6: SEQ ID NO:34: amidohydrolase, Cupriavidus necator N-1 (protein)
chain: MAQGKIGLEEHFAIPETLNDSAGFVPGDYWKELSRRLLDIQDDRLRQMDENGMEMMLLSLNAPAVQAVPDRKQACELAVRANDFLAEQVSRRPDRFQALAALPLQDPDFATVELTRCVNELGMRGALVNGFSQIDTPDNVVYYDAPQYASFWAAVEKLDVPFYLHPRNPIASWAQIYDGHPWLLGPTWAFGQETAVHALRLMASGLFDRHPALQIVLGHLGEGLPYSLWRIDNRNAWVKAPKTHPAKKTFRHYFQQNFHLTTSGNFHNQTLIDAILEIGADRILFSTDWPFENIDHAAKWFDSASISEADRTKIGRTNAMKLFKLVA
modifications: Cupriavidus necator
B7: SEQ ID NO:31: reversible 2,6-dihydroxybenzoic acid decarboxylase, Agrobacterium sp. H13-3 (protein, listed as Agrobacterium sp.)
chain: MAQGKVALEEHFAIPETLQDSAGFVPGDYWKELQHRLLDIQDTRLKLMDAHGIETMILSLNAPAVQAIPDKTKAIEIARRANDVLAEECAKRPDRFLAFAALPLQDPDAATEELQRCVNDLGFVGALVNGFSQEGDGQTPLYYDLPQYRPFWGEVEKLDVPFYLHPRNPLPQDSRIYDGHPWLLGPTWAFAQETAVHALRLMASGLFDEHPRLNIILGHMGEGLPYMMWRIDHRNAWVKLPPRYPAKRRFMDYFNENFHITTSGNFRTQTLIDAILEIGADRILFSTDWPFENIDHASDWFNATSIAEADRVKIGRTNARRLFKLDGA
B8: SEQ ID NO:36: hypothetical protein AGRO_1970, Agrobacterium sp. ATCC 31749 (protein, listed as Agrobacterium sp.)
chain: B7 chain with K31T, V84A, D94N, E112Q, T139I, M251V, N302H, A328R
B9: SEQ ID NO:46: decarboxylase, Rhodococcus opacus B4 (protein, listed as Rhodococcus opacus)
chain: MARIITLEEHYLDPAIAAASAPLARELSPDFAAAYDPASGLSYTPSAQVLQDLGQRRIADMDTHGISMQVLSCLTTQQVPADVAPDLVRAANDTAAAAVRAHPDRFAAFAALPTTAPDAAATELARCIDDLGFVGTMINGRTDGEFLDAPRFDPILATAAARNVPIYLHPAVPPRATSDSNYAGLAPLVTARLQTSAWGWHQETAVHFLHLVLSGVLDRYPNLQFILGHWGEMIPFYLDRLDEALPQAVTNLDRTISDYVRENVYITPSGMFNQAQLQYCVETLGVDRILYSVDYPFIGNDGAVSFLDEANLPDEAKHQIAHQNTEKLLGL
B10: SEQ ID NO:49: amidohydrolase 2, Streptomyces sp. SPB78 (protein, listed as Streptomyces sp.)
chain: MAKIIALEEHFSDPAVAKAGAARARALSPGFAASYSPASGLPYSPSPEVLENLAEKRLADMDAGGITMQVLSGLGAQTVPADVAPALVAGSNDKAAAAVRAHPDRFAAFAALPTATPEAAVAELDRSVNELGFVGTLIMGRTEGEFLDAPRFEPILARAAALKVPVFLHPGVPPREITDSNYAAGLPTGIGTRLQTAAWGWHQETAVHFLHLVHSGVLDRYPDLQFILGHWGEMIPFYLDRVDEALPQRATGLDRSFHEYFRENVYLAPSGMWSQAQLRFCLETVPLERIVFAVDYPFIGNEGAVPFLEKAELPQADKRKIAHENAERLLGL
B11: SEQ ID NO:35: amidohydrolase, Burkholderia sp. CCGE1001 (protein)
chain: MAFKASRKIALEEHFAIDATVQDSAGFVPPSYWAELKRRLLDIHDRRIDEMDRNGVELMVLSLNAPTVQAVPNIKDAYDLSRRANDFLAEQIVKRPERFKGFAALPMQSPDLAARELERCVKELNFVGALVNGFSQVEESGTALYYDLPQYRQFWSVVQALDVPFYLHPRNPLPAHAPIYEGHPWLLGPTWAFGQETAVHALRLMGSGLFDEYPELKIILGHMGEGLPYSMWRIDNRNAWVETQPNYPAKKRIAEYFHKNFWLTTSGNFRTQTLIDAMLEIGSDRILFSTDWPFENVDHAAQWFDDAAISENDRIKIARTNAARLFKLEP
modifications: Burkholderia sp
B12: SEQ ID NO:30: o-pyrocatechuate decarboxylase, Enterobacter aerogenes KCTC 2190 (protein)
chain: MARGKIALEEHVSTPENNRLWDSTGEANRNGSEYMQDVERRLLDRSIQLEEMAQRNIDHVILSLTSPGAQSILDKAKAVSFARDTNDFIVDNYVKPNPDKFSAFATLALQNPEAAAEELERAVKKLGMKGALINGYTNVKDSEHGLYLDDESMLVFWDKVNELNVPVYLHPREPLEGPARGIYTGYESLIGSAWGFAQETAVHAIRLMMSGLFDRYPNLNLVLGHLGEGLVHMLPRTQHRLYRQRFGCGLGKAEKPLMHYLQNNFIVTTSGHFNTHSLNNAIEVMGADRVMFSVDYPYEDIHQACDWFDPLEMDEGLKEKIAWGNASRVFNIK
modifications: Enterobacter aerogenes
B13: SEQ ID NO:44: amidohydrolase, Mycobacterium avium 104 (protein, listed as Mycobacterium avium)
chain: MARIITVEEHFQHPEVSARVAELTGPAVEGLAEFGNAFSLDPDSTARLGGNRLAHMDQVGIDVQVVSHGNGSPGTLQHPEAVELCRRVNNDLAAQIAENPDRFRGFATLPLYDPAAAAEELRRCVGDLGFVGALIAGSYDGLFLDDERFDPILTAAEAVDFPIYVHPGLPEAPVSQRYYAGSWPASVHMMFSGPAFGWHAEAGIHIVRLILSGALDRHPTLKLLSGHWGELAAFYLERLDETLGLLPTGLERAPSDYYRQQVWITPSGMYNQNQLNFMTAELGAQRIIYSEDFPYVVRDNVSTFLEQAGLSEADTHAIAHTNAEALLRI

Experiment: 14C assay with IPTG-induced recombinant E. coli cells (14CO2 capture from [14C]-carboxyl-labeled dicamba)
Conditions: E. coli cell assay, 108 sequences tested

Row | Molecule | decarboxylation activity of dicamba
1 | B1 | showed decarboxylation activity of dicamba
2 | B2 | showed decarboxylation activity of dicamba
3 | B3 | showed decarboxylation activity of dicamba
4 | B4 | showed decarboxylation activity of dicamba
5 | B5 | showed decarboxylation activity of dicamba
6 | B6 | showed decarboxylation activity of dicamba
7 | B7 | showed decarboxylation activity of dicamba
8 | B8 | showed decarboxylation activity of dicamba
9 | B9 | showed decarboxylation activity of dicamba
10 | B10 | showed decarboxylation activity of dicamba
11 | B11 | showed decarboxylation activity of dicamba
12 | B12 | showed decarboxylation activity of dicamba
13 | B13 | showed decarboxylation activity of dicamba
